Data on 54 molecules can be found in publication PMC314469, “Protein Interaction Networks by Proteome Peptide Scanning” (PLoS Biology, 2004).

T1: Abp1 SH3 (ABP1_YEAST), P15891
T1 chain: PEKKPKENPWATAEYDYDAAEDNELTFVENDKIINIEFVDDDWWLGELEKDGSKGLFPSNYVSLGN

The target in this test is T1, Abp1 SH3 (ABP1_YEAST), P15891. Nature of the test: SPOT array.
With IDFFLALFSDPARP [YHL005C 58-71], the normalised SPOT signal, Boehringer light units (BLU); mean over the file's lines of this peptide came out at 21.9.
In turn, HPEYTSKVLDPSKP [YBL039C 535-548] came in with a normalised SPOT signal, Boehringer light units (BLU); mean over the file's lines of this peptide of 69.3.
Molecule IFYSLIYPYLIKP [YIL067C 132-144] showed a normalised SPOT signal, Boehringer light units (BLU); mean over the file's lines of this peptide of 90.9.
In turn, IGNDRASPTNKKP [YGR097W 338-350] yielded a normalised SPOT signal, Boehringer light units (BLU); mean over the file's lines of this peptide of 420.
Next, IEFKDVSFSYPTRP [YPL270W 493-506]: 89; HYDVDANIMPPPKP [YBR108W 510-523]: 108.
Next, HSAATALPALRRP [YLR162W 19-31]: 80.8; HKSNVRQISNPKKP [YGL023C 320-333]: 98.3; IFLNRKKPALFRP [YNL230C 281-293]: 2850.
Turning to HYPPGYDPTDPNRP [YER166W 1422-1435], the normalised SPOT signal, Boehringer light units (BLU); mean over the file's lines of this peptide came to 176.
As for HHNIDIDPLPRRP [YLR299W 81-93], the normalised SPOT signal, Boehringer light units (BLU); mean over the file's lines of this peptide turned out to be 55.3.
Next, IDRIPPPTGRPDKP [YLR289W 221-234]: 118; HKVKERDPNMPKRP [YDL002C 84-97]: 156.
The result for HTEQNNPPKPQKP [YOR290C 412-424] reads 129.
Next, IEKTKDILSIPPKP [YOR219C 489-502]: 63.2; HSAIQSLSFHPSKP [YJL069C 248-261]: 194; HVNLDKGKHVPSKP [YKL054C 142-155]: 105.
In the case of IGSFITINIVPWRP [YLR101C 109-122], the normalised SPOT signal, Boehringer light units (BLU); mean over the file's lines of this peptide is 21.1.
The result for IAIEREEDSIPSRP [YMR221C 251-264] reads 99.1.
The result for IHLTDKGFKMPKKP [YOR243C 79-92] reads 508; that for IIEKGPVPENLKP [YLR069C 260-272], 100.
Next, IGLFGKDLSKPGRP [YBR243C 53-66]: 150.
For HTMTSPPPVFNKP [YDL195W 1091-1103], the normalised SPOT signal, Boehringer light units (BLU); mean over the file's lines of this peptide amounted to 1200.
In the case of HNTSSSIPKISRP [YGR014W 1282-1294], the normalised SPOT signal, Boehringer light units (BLU); mean over the file's lines of this peptide was found to be 765.
Next, IIDSVKVPDSYKP [YDR058C 11-23]: 67.7; IDIPVRQPYSKKP [YDR422C 269-281]: 639.
The result for IAHFNYLPPTIRP [YKR099W 624-636] reads 197; that for HLSLTAVPSFLRP [YJR090C 735-747], 62.7; that for HPEYTSKVLEPSRP [YJR103W 537-550], 91.6.
The molecule IAVGLDALNIPHKP [YHR033W 54-67] had a normalised SPOT signal, Boehringer light units (BLU); mean over the file's lines of this peptide of 142.
HIGDMYGSVTPLRP [YHL002W 323-336] registered a normalised SPOT signal, Boehringer light units (BLU); mean over the file's lines of this peptide of 122.
As to IERQRLSMVTPSKP [YCL063W 140-153], the normalised SPOT signal, Boehringer light units (BLU); mean over the file's lines of this peptide amounted to 2630.
The result for HVPIVKRNKYPPRP [YDR195W 518-531] reads 267.
The result for IATSADYIFIPEKP [YMR205C 403-416] reads 90.5.
Molecule HITSHLRVHVPLKP [YHL027W 198-211] had a normalised SPOT signal, Boehringer light units (BLU); mean over the file's lines of this peptide of 285.
Next, HLFPPSSPVAGKP [YDR501W 3-15]: 69.7.
For the molecule HLYSMDPPLDRKP [YGL131C 343-355], the normalised SPOT signal, Boehringer light units (BLU); mean over the file's lines of this peptide was 172.
In turn, HKNFFSQPDINRP [YMR100W 263-275] returned a normalised SPOT signal, Boehringer light units (BLU); mean over the file's lines of this peptide of 85.4.
IAVISVLPNFKKP [YBL004W 947-959] came in with a normalised SPOT signal, Boehringer light units (BLU); mean over the file's lines of this peptide of 29.
As to IGRNIVKVVYPDKP [YJL025W 348-361], the normalised SPOT signal, Boehringer light units (BLU); mean over the file's lines of this peptide was found to be 105.
HYAKNRTPGVMKP [YLR244C 308-320] displayed a normalised SPOT signal, Boehringer light units (BLU); mean over the file's lines of this peptide of 419.
Next, HLIAPLAGAVPTKP [YLR153C 435-448]: 131; HTDDLPEGIRPFKP [YLR090W 428-441]: 61.
Take HVDEDGEPIDIKP [YLR429W 120-132]: the normalised SPOT signal, Boehringer light units (BLU); mean over the file's lines of this peptide amounted to 202.
Next, HLNNSDIHSQPNKP [YOR329C 803-816]: 87.4; IDILGLAELAPGKP [YLR304C 721-734]: 124.
The result for IFLNYEWPQWLRP [YOR336W 1160-1172] reads 163; that for HMTHNRKPAEPTKP [YML075C 1020-1033], 2090.
IDLVKHSPGAIKP [YHL030W 1303-1315] registered a normalised SPOT signal, Boehringer light units (BLU); mean over the file's lines of this peptide of 84.8.
As to IESLTTIMRIPSKP [YBR250W 264-277], the normalised SPOT signal, Boehringer light units (BLU); mean over the file's lines of this peptide stood at 204.
Next, IHYKKNIEISPLKP [YML053C 112-125]: 82.1; IHTSPHQPSDVKP [YDR227W 60-72]: 121.
IFPPIDDPLPFKP [YDR284C 246-258] displayed a normalised SPOT signal, Boehringer light units (BLU); mean over the file's lines of this peptide of 62.
The result for HHHHHNRGSTPTKP [YDL025C 257-270] reads 257.
